Laboratory results reported in the Immune Epitope Database (IEDB).

What was measured:
HLA-B*39:06 = assay: IEDB peptide-MHC binding, purified MHC/competitive/radioactivity; ≥ and ≤ were set here for values at or beyond the usual limits of such assays
HLA-B*38:01 = assay: as above
[1] = source organism: Simian immunodeficiency virus
[2] = source organism: Human immunodeficiency virus 1

ARFTGIKTA was tested, and the IC50 (HLA-B*39:06; source organism: Homo sapiens) was 6 nM.
Sequence DHHLPPPAA has an IC50 (HLA-B*39:06; source organism: Homo sapiens) of 72 nM.
In the case of DHQAAMQII, the IC50 (HLA-B*38:01; [1]) is reported as 125 nM.
Work on DRFGLAESL yielded an IC50 (HLA-B*38:01; [1]) of 30 nM.
With EAFEHTPGV the IC50 (HLA-B*39:06; source organism: Mus musculus) was ≥ 77000 nM.
In the case of EHTPGVHMA, the IC50 (HLA-B*39:06; source organism: Mus musculus) is reported as 1210 nM.
ERFYGKYTA gave an IC50 (HLA-B*39:06; source organism: Homo sapiens) of 9.2 nM.
Sequence ERMKLVVQA has an IC50 (HLA-B*39:06; source organism: Homo sapiens) of 15 nM.
With FRQYTAFTL the IC50 (HLA-B*38:01; [1]) was 17 nM.
In the case of FRYQGHVGA, the IC50 (HLA-B*39:06; source organism: Homo sapiens) is reported as 1.7 nM.
Sequence GHQAAMQML has an IC50 (HLA-B*38:01; [2]) of 1020 nM.
Work on GRSIAFHSA yielded an IC50 (HLA-B*39:06; source organism: Homo sapiens) of 40 nM.
In the case of HRLEGLREA, the IC50 (HLA-B*39:06; source organism: Homo sapiens) is reported as 9.6 nM.
Sequence IEHDVVMKA has an IC50 (HLA-B*39:06; source organism: Homo sapiens) of 137 nM.
For IHGQANSDL, the IC50 (HLA-B*38:01; [1]) was 2360 nM.
Work on IHIDSTPFA yielded an IC50 (HLA-B*39:06; source organism: Mus musculus) of 2200 nM.
IHIPGDTLF gave an IC50 (HLA-B*38:01; source organism: Vaccinia virus) of 11 nM.
INSEMFLRS was tested, and the IC50 (HLA-B*39:06; source organism: Mus musculus) was ≥ 77000 nM.
With KMQKEHALF the IC50 (HLA-B*38:01; [2]) was 12100 nM.
In the case of KRHKEFALF, the IC50 (HLA-B*38:01; [2]) is reported as 1100 nM.
KTQKEYALF gave an IC50 (HLA-B*38:01; [2]) of 40600 nM.
LQHPFVRSA showed an IC50 (HLA-B*39:06; source organism: Homo sapiens) of 7.7 nM.
LVAEAFEHT was tested, and the IC50 (HLA-B*39:06; source organism: Mus musculus) was ≥ 76100 nM.
MALWMRFLP was tested, and the IC50 (HLA-B*39:06; source organism: Mus musculus) was 11900 nM.
In the case of MHEDIISLW, the IC50 (HLA-B*38:01; [2]) is reported as 53 nM.
For NETWYSADL, the IC50 (HLA-B*38:01; [1]) was 3920 nM.
For NHINVELSL, the IC50 (HLA-B*39:06; source organism: Homo sapiens) was 27900 nM.
For NHLPRELIF, the IC50 (HLA-B*38:01; [1]) was 1120 nM.
NRVMLPKAA gave an IC50 (HLA-B*39:06; source organism: Homo sapiens) of 2.7 nM.
In the case of NRYDGIYKV, the IC50 (HLA-B*39:06; source organism: Homo sapiens) is reported as 371 nM.
With RHDITGFIL the IC50 (HLA-B*38:01; source organism: Variola virus) was 6.4 nM.
In the case of SRYLGKITA, the IC50 (HLA-B*39:06; source organism: Homo sapiens) is reported as 8.1 nM.
Work on TFDVAPSRL yielded an IC50 (HLA-B*39:06; source organism: Homo sapiens) of 353 nM.
In the case of THIQQDPAL, the IC50 (HLA-B*38:01; [1]) is reported as 148 nM.
In the case of THNYGIGAA, the IC50 (HLA-B*39:06; source organism: Homo sapiens) is reported as 15 nM.
THTNGVRLL was tested, and the IC50 (HLA-B*38:01; [1]) was 617 nM.
TNVFLFLFA was tested, and the IC50 (HLA-B*39:06; source organism: Mus musculus) was 68800 nM.
Sequence TQRLIRESA has an IC50 (HLA-B*39:06; source organism: Homo sapiens) of 11 nM.
With TRYQIPKEV the IC50 (HLA-B*39:06; source organism: Homo sapiens) was 450 nM.
For VPSLQYLAL, the IC50 (HLA-B*38:01; [1]) was 1530 nM.
With WHLGQGVSI the IC50 (HLA-B*38:01; [2]) was 10 nM.
With WLFSNCRTL the IC50 (HLA-B*38:01; [1]) was 993 nM.
With YHDIKRITA the IC50 (HLA-B*39:06; source organism: Homo sapiens) was 17 nM.
In the case of YKEPNSIIL, the IC50 (HLA-B*38:01; source organism: Variola virus) is reported as 4730 nM.
YRFIKIPTH showed an IC50 (HLA-B*39:06; source organism: Mus musculus) of 1350 nM.
With YYDEKVVKL the IC50 (HLA-B*39:06; source organism: Homo sapiens) was 3730 nM.
